From the nanobody polyreactivity screen of Harvey et al. (2022)

Assay: yeast display, Sf9 membrane polyspecificity reagent, FACS + sequencing; frameworks hold sequencing errors
Method in brief: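 A synthetic nanobody library was expressed on Saccharomyces cerevisiae BJ5465 by galactose induction for 36–48 hours. The library was stained for 1 hour at 4 °C with 10% biotinylated, detergent-solubilized Sf9 membrane reagent and enriched with streptavidin microbeads before FACS. Low and high (top ~1%) gates were set on anti-HA fluorescence for expression and streptavidin fluorescence for reagent binding, and each polyreactivity label reflects the gate of origin.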

Sequence	polyreactivity (PSR sort gate)
QVQLVESGGGLVQAGGSLRLSCAASGSTFPVYAMGWYRQAPGKERELVAAITSGGSTNYADSVKGRFTISRDNAKNTVYLQMNSLKPEDTAVYYCNAEDIYRKRDFYHRLYDYWGQGTQVTVSS	low polyreactivity
QVQLVESGGGLVQAGGSLRLSCAASGSTFASNAMGWYRQAPGKDRELVADLSSGGSTYADSVKGRFTISRDNAKNTVYLQMNSLKPVDTAVYYCNNRSYGFLRGPRKTIKYYRYGYWGQGTQVTVSS	high polyreactivity
QVQLVESGGGLVQAGGSLRVSCAASGFIFVRNTMVWYRQAPGKERELVAGIRYSGGSTYYADSVKGRFTISRDNAKNTVFLQMNSQKTEDTAVYYCAARSHRRLMYYWGQGTQVNVSS	high polyreactivity
QVQLVDSGGGLVQAGGSLRLSCPASGFTFVIYAMGWYRQEPGKESELVAAIRSGGRTYYADSVKGRFTISRDNAKNTVYLQMNSLKPEDTAVYYCAAVPDLKWFGYEYWGQGTQVTVSS	high polyreactivity
QVQLVESGGGLVQAGGRLRLSCAASGRTFTYNAMGWYRQAPGKERELFAAISNTGSTYYADSLKGRFTISRDNAKNTVYLQMNSLKPEDTAVYYCAADRAEFRQDDDPGESNYWGQGTQVTVSS	low polyreactivity
QVQLVESGGGLVQAGGSLRLSCAASGSIFDYNGMGWYRQAPGKERELVATITLSTARTYYADSVKGRFTISRDNAKNTVYLQMNSLKPEDTAVYYCAATRLTPYIYGGKYNYWGQGTQVTVSS	high polyreactivity
QVQLVESGGGLVQAGGSLRLSCAASGSTFTSYAMGWYRQAPRKERELVAAINYSGGSTYYADSVKGRFTISRDNAKNTVYLQMNSLKPEDTAVYYCAADGYIRQYVTYYYWGQGTQVTVSS	low polyreactivity
QVQLVESAGGLVQAGGSLRLSCAASASTFTNYVMGWYRQAPGKERELVAAITKSGGSTYYADSVKGRYTISRDNAKNTVYLQMNRLKPEDTAVYYCAARRTTEFGYWGQGTQVTVSS	high polyreactivity
QVQLVESGGGLVQAGGSLRLTCAASGRIFSSYAMGWYRQAPGKERELVAAITGRDGSTYYADSVKGRFTISRDNAKNTVYLQMNSLKPEETAVYYCAASRFYFPLTFGGYPKLASYDYWGQGTQVTVSS	low polyreactivity
QVQLVESGGGLVQEGGSLRLSCAASGRTFDSYTMGWYRPAPGKQRELVADITFTGGSTYYADTVKGRFTISRDNAKYIVFLQMNSLKPEDTAVYYCNADREYKWYFRYDYWGQGTQVNVSS	low polyreactivity
QVQLVESGGGLVQAGGSLRLSCAASGRTFYRYVMGWYRQAPGKERELVAAITPGGSTYADSVKGRFTISRDNAKNTVYLQMNSLKPEDTAVYYCNAKVGAYLNYGYWGQGTQVTVSS	low polyreactivity
QGQLVESGGGLVQAGGSLRLSCAASGFIFRYYTMGWYRQAPGKERELVAAITSRGGSTYYADSVKGRFTISRDNAKNTFYLQMNSLKPEDTAVYYCATTRWGYEYWGQGTQVTVSS	high polyreactivity
QVQLVESGGGLVQAVGSLRLSCAASGTFARYAMGWYRQGPGKERELVAAISSRGGSTYYADSVKGRFTISRDNAENTVYLQMNSLKPEDTAVYYCAAAHQYYPEYYYWGQGTQVTVSS	high polyreactivity
QFQLVESGGGLVQAGGSLRLSCAASGLTFSRYAMGWYIQAPGKERELVAAITCSGSSTYYSHSVKGRFTISRDNAKNNVYLQMNSLKPEDTAVYYCAARYGYSRGTYYRSDYWGQGTQVTVSS	high polyreactivity
QVQLVESGGGLVQAGGSLRLSCAASGSTFPTYAMGWYRQAPGKERELVAAITSGSGTNTYYADSVKGRFTISRDNAKNTVYLQMNSLKPEDTAVYYCAKSFRKKYGWGQGTQVTVSS	high polyreactivity
QVQLVESGGGLVQAGGSLRLSCAASGRTFYRYAMGWYRQAPGKERELVATISSSGRTYYADSVKGRFTISRDNAKNTVYLQMNSLKPEDTAVYYCRFTIKHGSWGQGTQVTVSS	high polyreactivity

Sequence	polyreactivity (PSR sort gate)
QVQLVESGGGLVQAGGSLRLSCAASGRTFRGYAMGWYRQAPGKERELVAAITRSGGSTYADSVKGRFTISRDNAKNTFYLQMNSLKPEDTAVYYCAADRGYKYYYWGQGTQVTVSS	high polyreactivity
QVQLVESGGGLVQAGGSLRLSCAASGSTFFFNAMGWYRQAPGKERELVAAITGRSGSTYYADSVKGRFTISRDNAKNTVYIQMNSLKPEDTAVYYCAADYVFVATPLRYDYWGQGTQVTVSS	low polyreactivity
QVQLVESGGGLVQPGGSLRLSCAASGFIFSYYVMGWYRQAPGKERELVAAITTSGDSTYYADSVKGRFTISRDNAKNSVYLQMNSLKPEDTAVYYCNTVYRYRYYWGQGTHVTVSS	high polyreactivity
QVQLVESGGGLVQAGGSLRLSCAASGSTFWYNAMGWYRQAPGKERELVAAITQSGTRTYYADSVKGRFTISRDNAKNTVFLQMNSLKPEDTAVYYCAAGNAPYYRYGSKKYGYWGQGTQVTVSS	high polyreactivity
QVQLVESGGGLVQAGGSLRLSCAASGSIIYFNAMGWYRQAPGKERELVAAITRSGGSTYYADSVKGRFTISRDNAKNTVYLQMNSLKPEDTAVYYCAAEVWRTYSVEYDYWGQGTQVTVSS	high polyreactivity
QVQLVESGGGLVQAGGSLRLSCAASGRTIRRYAMGWYRQAPGKERELVAAITISGGSTYYADSVKGRFTISRDNAKNTVYLQMNSLKPEDTAVYYCAAQPWRALGYYYWGQGTQVTVSS	high polyreactivity
QDHLVESGGGLVQAGGSLRLSCSASGRTFGTYAMGWYRQAPGKERELVATISSGGSTYYADSVKGRFTISRDNAKNTGYLQMNSLKPEDTAVYYCADYRYFRPGDYWGQGTQVTVSS	low polyreactivity
QVQLVESGGGLVQAGGSLRLSCAASGRIFVKNAMGWYRQAPGKERELVAAISSGSSTNYADSVKGRFTISRDNAKNTVYLQMNSLKPEDTAVYYCAARQAQWDDYWGQGTQVTVSS	high polyreactivity
QVQLVESGGGLVQAGGSLRLSCAASGRTFGRYTMGWYIQAPGKERELGASISNTARTNYADSVKGRFTISRDNAKNTVYLQMNSLKPEDTAVYYCAAGFVRYRGTRDYWGQGTQVTVSS	low polyreactivity
QVQLVESGGGLVQAGGSLRLSCAASGSNFFSNAMGWYRQAPGKERELVAAITSSGASTYYADSVKGRFTISRDNAKNTVYLQMNSLKPEDTAVYYCAVVGGGKRYGYWGQGTQVTVSS	high polyreactivity
QVQLVESGGGLVQAGGSLRLSCAASGSIFLGNAMGWYRQAPGKERELVAAISGGDSTNYADSVKGRFTISRDNAKNTVYLQMNSLKPEDTAVYYCAKDRPQEYDYWGQGTQVTVSS	low polyreactivity
QDQIVYSGGGLVQAGGSLRLSCAASVRTFYRYDLGWYIQAPGKESELVAAISYSGASTYYADSVKGRFTISRDIAKNTVYLQMNSLKPEDTAVYYCAARYHGRDPRQIRYGYWGQGTQVTVSS	high polyreactivity
PVQLQQSGSGLVQAGGSLRLSCAASGYISLGDNKGWYRQAPGKEREFDATISVGGITYYVDSVKGPFTISRDIAKNTVYLQMNSVKPEDTAVYYCAALDIYYLRYYYWGQGTQVTLSS	low polyreactivity
QVQLVESGGGLVQAGGSLRLSCAASGSIFHSYAMGWYRQAPGKEREFVASITQRVGRTNYADSVKGRFTISRDNAKNTVYLQMISLKPEDTAVYYCAASSWRLYYRRDSWGQGTQVTVSS	high polyreactivity
QVQLQESGGGLVQAGGSLRPSCAPSGSISDGDPMAWYRQAPGEERELVATTVLGATTNYADSVKGRFTISRGNAENTVYLERYWLKPVETAVYYCAAPLRYDKGFSYWGQGTQVTVSS	low polyreactivity
QLQLVESGGGLVQAGGSLRLSCAASGRTFRSYTMGRYRQAPGKERELVASITRSGVSTYYADSVKGRFTISRDNAKNTVYLQMNSLKPEDTAVYYCAAYSVFRSYDYWGQGTQVTVSS	high polyreactivity
